Measured values reported in the supplement of paper PMC10567573.

B1: FAM9B (parent)
chain: EDLTAKRKRMKMDKTCSKTKNKSK
B2: CDC34 (parent)
chain: GGYFKARLKFPIDYPYSPPAFRFL

Variants of: B1
Assay: protein stability index of a GFP-peptide fusion (GPS, HEK-293T) (PSI 1-6); higher = more stable
Conditions: c terminus: a fixed tail appended
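Also: lentivirally expressed fusions sorted by FACS into six bins by GFP to DsRed ratio, PSI derived from sequencing read proportions per bin multiplied by bin number.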

Protein stability index of substitutions, site by site:
A5: F 4.42; C 4.05; D 5.08; G 5.47; H 5.05; K 4.15; Y 5.13; W 5.3; S 5.5; M 5.2; T 4.51; P 4.92; N 4.33; R 5.23; Q 4.71; L 5.37
M10: Y 4.94; D 5.29; R 5.64; I 5.18; Q 5.28; K 5.31; A 4.25; L 5.34; V 5.12; H 5.43; E 5.43; G 4.71; T 5.35; N 4.23; F 4.88; W 4.96; S 5.43; C 5.02; P 4.75
D13: G 5.48; C 4.33; A 4.99; E 5.57; F 4.26
K11: Y 4.26; T 4.49; R 4.97; G 5.19; L 4.62; V 5.08; I 4.47; S 4.79; H 5.38; E 5.29; Q 5.02; F 5.02; C 4.9; P 5.16; N 4.45; W 4.83; A 5.04; M 4.21; D 5.22
K6: V 4.65; R 5.33; L 4.85; C 4.78; M 4.67; A 4.87; D 5.33; N 4.85; Q 5.12; E 5.7; T 4.68; Y 5.19; G 5.69; S 5.26; P 5.59; I 5.1; F 4.42; W 4.29; H 5.37
R9: F 5.14; L 4.04; I 4.08; V 5.09; S 5.47; Q 5.58; A 5.33; K 5.33; D 5.64; P 4.4; G 4.9; N 5.38; C 5.05; Y 5.29; E 5.12; M 5.07; H 4.49; W 4.48; T 5.11
D2: W 3.49; K 4.9; E 5.3; L 4.08; M 4.44; R 4.43; C 4.11; H 5.01; V 4.86; I 4.16; Q 5.04; S 4.63; N 4.63; G 5.21; F 3.65; P 5.51; T 4.92; Y 3.69; A 5.42
K8: D 5.29; L 4.38; P 5.5; N 5.53; W 4.77; I 4.4; Y 4.33; C 5.09; A 4.94; F 4.58; Q 3.39; E 4.99; V 5.13; H 4.97; G 4.75; T 4.97; S 5.39; R 5.15
R7: S 5.3; H 4.95; L 4.87; V 4.87; C 5.26; G 5.54; N 4.93; Q 5.32; E 5.45; M 4.75; Y 5.11; A 5.09; K 5.16; T 5.46; P 5.27; F 4.69; D 5.41; W 4.33; I 4.82
M12: E 5.78; F 4.95; Y 5.16; G 5.76; T 5.54; C 5.06; R 4.72; Q 5.03; L 4.79; S 5.9; V 4.45; H 5.44; W 3.86; A 5.02; D 5.18; I 5.03; N 4.67; P 5.61; K 4.79
E1: W 3.89; C 3.08; F 4.53; L 4.38; I 4.08; D 5.32; H 4.87; Q 4.99; P 4.9; G 4.86; T 4.91; K 4.89; N 5.29; A 4.77; M 4.15; S 5.16; R 4.64; V 4.96; Y 3.72
L3: R 5.17; P 5.39; F 4.98; E 5.77; M 5.13; T 5.33; A 4.91; Q 5.51; H 5.43; C 5.09; S 4.99; G 5.66; N 5.15; V 5.63; Y 5.23; K 5.4; D 5.5; W 4.6
T4: Q 4.7; R 4.64; V 5.02; I 4.58; S 4.74; E 5; P 4.96; C 4.52; A 5.25; D 5.5; H 5.29; N 4.8; K 5.54; L 4.6; W 4.38; F 4.72; Y 4.21; M 4.45; G 5.14

Variants of: B2
Assay: as above
Conditions: c terminus: a fixed tail appended

Protein stability index of substitutions, site by site:
F23: W 1.43; S 2.95; V 3.6; M 2.48; K 2.8; N 2.95; A 2.82; Y 1.26; L 1.54; R 2.42; I 2.08; E 2.19; Q 1.48; H 4.27; P 3.15; D 2.71; T 2.74; G 1.09
P19: V 2.35; H 2.67; Y 4.32; M 3.23; I 2.56; T 3.29; R 3.69; E 2.21; W 3.02; N 3.27; S 2.64; A 2.29; Q 2.55; C 3.03; L 3.41; F 2.96; K 2.99; D 2.21
L24: K 3.77; T 3.35; G 2.44; E 1.76; D 2.33; Y 2.4; Q 2.95; W 2.05; A 3.55; V 3.43; F 2.89; N 3.21; R 3.94; M 2.76
P18: N 2.51; Y 2.48; S 3.15; M 2.19; W 2.38; Q 3.79
A20: T 2.95; L 2.52; G 2.29; H 3.05; F 3.14; W 2.98; K 3.03; S 2.54; D 2.18; C 1.71; E 3.68; Q 2.41; V 2.96; I 3.02; M 3.57; R 3.03
F21: A 2.57; R 2.82; E 1.65; G 3.19; Y 1.53; T 2.67; V 3.33; S 1.54; C 2.55; D 2.34; I 2.48; W 3.02; K 2.16; N 1.88; M 2.15; Q 3.14
R22: M 3; I 2.74; L 2.97; S 2.8; K 2.74; A 4.99; P 2.62; C 4.57; T 2.52; V 4.1; Q 2.65; F 3.63; H 2.87; G 2.78; N 2.73; D 3.74; Y 2.7; E 2.58
